Experimental data: patent US20100160234A1

Molecular target: Native eIF4E of High Five (Trichoplusia ni) insect cells (Trichoplusia ni)
Assay: cell-based or functional assay

B1: his-tagged PVY VPg protein (protein, not shown: small tags and cut ends)
chain: GKNKSKRIQALKFRHARDKRAGFEIDNNDDTIEEFFGSAYRKKGKGKGTTVGMGKSSRRFINMYGFDPTEYSFIQFVDPLTGAQIEENVYADIRDIQERFSEVRKKMVENDDIEMQALGSNTTIHAYFRKDWSDKALKIDLMPHNPLKVCDKTNGIAKFPERELELRQTGPAVEVDVKDIPAQEVEHE
- eIF4E in cytoplasm (%), 12 h p.i., cell fractionation, Western blot and densitometry: 53.5%
- eIF4E in cytoplasm (%), 24 h p.i., cell fractionation, Western blot and densitometry: 81.3%
- eIF4E in cytoplasm (%), 36 h p.i., cell fractionation, Western blot and densitometry: 83.3%
- eIF4E in cytoplasm (%), 48 h p.i., cell fractionation, Western blot and densitometry: 74.1%
- eIF4E in nucleus (%), 12 h p.i., cell fractionation, Western blot and densitometry: 46.5%
- eIF4E in nucleus (%), 24 h p.i., cell fractionation, Western blot and densitometry: 18.7%
- eIF4E in nucleus (%), 36 h p.i., cell fractionation, Western blot and densitometry: 16.7%
- eIF4E in nucleus (%), 48 h p.i., cell fractionation, Western blot and densitometry: 25.9%
